Fewer inactive variants are shown than the library holds.
B1: TPR 5TU (parent)
chain: GGAUCUUCUCGAUCUAACAAAAAAGACAAAUCUGCCACAAAGCUUGAGAGCAUCUUCGGAUGCAGAGGCGGCAGCCUUCGGUGGCGCGAUAGCGCCAACGUUCUCAACUAUGACACGCAAAACGCGUGCUCCGUUGAAUGGAGUUUAUCAUG

Variants of: B1
Assay: polymerase ribozyme fitness, log enrichment relative to wild type (log ratio); higher = more active; in vitro selection for triplet polymerase activity
Summary of the method: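 Frozen incubation at −7 °C formed the core of a single, triplicate in vitro selection round applied to PCR-built, transcribed mutant libraries of each subunit of a heterodimeric triplet polymerase ribozyme. Extended constructs were gel-excised, captured with streptavidin beads and amplified by RT-PCR, and input and output libraries were Illumina-sequenced with a filter of ≥10 input reads and ≥1 read per output. Fitness is the logarithm of genotype enrichment relative to wild-type enrichment, with inverse-variance-weighted replicate averaging, and the logarithm is base 2.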

Variant	polymerase ribozyme fitness (log ratio)
C36A A91U C93G C118A A137U	≤ -4.2
A37C C51A G92U A106C	≤ -4.2
A37G C54U C131U	-1.58
C36A A64C G86C G133U	≤ -4.2
A37U A41U A89G A115C A150U	≤ -4.2
A37C A73G G86A	-2.34
C36A A89U C116A A120U	-4.18
C36A A138U U145A A147C	-3.85
C35U C87U C96U C114U	-3.78
C38U C63A C103A	-1.77
C36G C69A U78C C85U U102C U127A	≤ -4.2
C38A U82G A91G A106C A138G	≤ -4.2
C38G G143C C149U	≤ -4.2
C36A A47U G74U G92C A115G C149G	≤ -4.2
C35U C87U	-0.746
C36U A52U U53C C79U A91U U135A	≤ -4.2
A37U A40G C76G C93A C103G	≤ -4.2
C35U U144A	-0.455
C35U U144G	1.13
C35U A52C G58U G59C G70U C85A G152U	≤ -4.2
C38U A60U	-1.14

Variant	polymerase ribozyme fitness (log ratio)
C36A U56A U77G C87U U102A A119C	≤ -4.2
C38U C85U	-0.884
A37C A49C U77A C87G A120G C131G	≤ -4.2
C36U G46A G70A G83C A120U G133C	-3.23
C36U C114U C131A	≤ -4.2
C36A A47U A52U U53A G59C A106G	≤ -4.2
C38A U55A C76A	-1.15
C35U U53A U135A G143C	-4.16
C35U A41G G94A A98U G152U	-3.4
C38U A47C U102C A119U	-3.66
C36U A39C U82C G84U A119C A120U G133C A142U	≤ -4.2
C38G U53A G70A G92A A107C	≤ -4.2
C38A C69G C93U U139A	≤ -4.2
C36U C108U	≤ -4.2
C36A A60G G143A	≤ -4.2
A37C U45G A47C G59A C79G G81C U82C C95U	-4.18
C35U U56A	0.225
C36A G74C	≤ -4.2
C38U A41U C51U G84A G143A	-3.06
C36A U56G C103G A142G G143C	≤ -4.2
A37U G71A C125A	≤ -4.2

Variant	polymerase ribozyme fitness (log ratio)
C36A C51G C85A	≤ -4.2
C36U A98U	-1.07
C36U C95G	-2.94
C35U C116U	0.17
A37U A49C C95G A97G C108G A138G U146G U151A	≤ -4.2
C35G U55A C85A A113C	-3.96
C35U G59A C87U U144C	-1.17
C38U A39C G92U	-2.59
C38A A52G C63A	-1.26
C35U G68U U90G G117A U144G	≤ -4.2
A37U G65C A110U G136C	≤ -4.2
C36U C57G C69A U134C	-2.32
C36U C96G G117U G152A	-3.09
C36A A49U C63U C79G C87U A106G G133A U144C	≤ -4.2
C35U C95U G126A	-1.49
C36U G92C G100U G117A A122G	≤ -4.2
C38G G58C G92U C105G U146C	-2.53
C35U U61A	-1.27
C35U A106C U144A	-2.33
C35U C95U C96A	-1.64
C38A C51U C95U G124C	-1.51

Variant	polymerase ribozyme fitness (log ratio)
C36G C43U C85U A115C C116A	-4.15
C36U G59A G94U A107C G133C G140U U144G	≤ -4.2
C38A C95G G124C	-1.34
C38A C93U	-1.67
A37C U55G G81A C87A A106C A107U G143U	≤ -4.2
C36A G48A G50A C69G G71A	≤ -4.2
C35U C93G A119G	-3.76
C35U A147C	-0.582
A37G A40G A41G C76U C87U C93G C125G	≤ -4.2
A37U G80C A91C A150U	≤ -4.2
C36G A39U A40U A60G U104A G136U G141A	≤ -4.2
C35U A97U U134A	-3.07
C35U C54A G58C	-1.17
C38A G58C A98G A120C A121U	-0.687
C38U C85U C131G	-3.56
A37G C87U G136U	-3.7
A37U C38A G58C C85G C87G	≤ -4.2
C36G A40C G42C C54U G68A C118G C131A U135G C149A	≤ -4.2
C38G C54U C57U U146C	-1.16
A37G U55A A73G U111G	≤ -4.2
C36U A41C A47C A49U U55A C76G G94A A110C A113G U148G	-4.13
